B1: SPAM1-DGVC: C-terminally truncated human PH20, precursor 464 aa (SEQ ID NO:36), mature 429 aa (SEQ ID NO:88) (protein, listed as Homo sapiens)
chain 1: MGVLKFKHIFFRSFVKSSGVSQIVFTFLLIPCCLTLNFRAPPVIPNVPFLWAWNAPSEFCLGKFDEPLDMSLFSFIGSPRINATGQGVTIFYVDRLGYYPYIDSITGVTVNGGIPQKISLQDHLDKAKKDITFYMPVDNLGMAVIDWEEWRPTWARNWKPKDVYKNRSIELVQQQNVQLSLTEATEKAKQEFEKAGKDFLVETIKLGKLLRPNHLWGYYLFPDCYNHHYKKPGYNGSCFNVEIKRNDDLSWLWNESTALYPSIYLNTQQSPVAATLYVRNRVREAIRVSKIPDAKSPLPVFAYTRIVFTDQVLKFLSQDELVYTFGETVALGASGIVIWGTLSIMRSMKSCLLLDNYMETILNPYIINVTLAAKMCSQVLCQEQGVCIRKNWNSSDYLHLNPDNFAIQLEKGGKFTVRGKPTLEDLEQFSEKFYCSCYSTLSCKEKADVKDTDAVDVCIADGVC
chain 2: LNFRAPPVIPNVPFLWAWNAPSEFCLGKFDEPLDMSLFSFIGSPRINATGQGVTIFYVDRLGYYPYIDSITGVTVNGGIPQKISLQDHLDKAKKDITFYMPVDNLGMAVIDWEEWRPTWARNWKPKDVYKNRSIELVQQQNVQLSLTEATEKAKQEFEKAGKDFLVETIKLGKLLRPNHLWGYYLFPDCYNHHYKKPGYNGSCFNVEIKRNDDLSWLWNESTALYPSIYLNTQQSPVAATLYVRNRVREAIRVSKIPDAKSPLPVFAYTRIVFTDQVLKFLSQDELVYTFGETVALGASGIVIWGTLSIMRSMKSCLLLDNYMETILNPYIINVTLAAKMCSQVLCQEQGVCIRKNWNSSDYLHLNPDNFAIQLEKGGKFTVRGKPTLEDLEQFSEKFYCSCYSTLSCKEKADVKDTDAVDVCIADGVC
modifications: HuPH20 precursor 1-464; Mature HuPH20 36-464
B2: SPAM1-IADG: C-terminally truncated human PH20, precursor 462 aa (SEQ ID NO:37), mature 427 aa (SEQ ID NO:89) (protein, listed as Homo sapiens)
chain 1: MGVLKFKHIFFRSFVKSSGVSQIVFTFLLIPCCLTLNFRAPPVIPNVPFLWAWNAPSEFCLGKFDEPLDMSLFSFIGSPRINATGQGVTIFYVDRLGYYPYIDSITGVTVNGGIPQKISLQDHLDKAKKDITFYMPVDNLGMAVIDWEEWRPTWARNWKPKDVYKNRSIELVQQQNVQLSLTEATEKAKQEFEKAGKDFLVETIKLGKLLRPNHLWGYYLFPDCYNHHYKKPGYNGSCFNVEIKRNDDLSWLWNESTALYPSIYLNTQQSPVAATLYVRNRVREAIRVSKIPDAKSPLPVFAYTRIVFTDQVLKFLSQDELVYTFGETVALGASGIVIWGTLSIMRSMKSCLLLDNYMETILNPYIINVTLAAKMCSQVLCQEQGVCIRKNWNSSDYLHLNPDNFAIQLEKGGKFTVRGKPTLEDLEQFSEKFYCSCYSTLSCKEKADVKDTDAVDVCIADG
chain 2: LNFRAPPVIPNVPFLWAWNAPSEFCLGKFDEPLDMSLFSFIGSPRINATGQGVTIFYVDRLGYYPYIDSITGVTVNGGIPQKISLQDHLDKAKKDITFYMPVDNLGMAVIDWEEWRPTWARNWKPKDVYKNRSIELVQQQNVQLSLTEATEKAKQEFEKAGKDFLVETIKLGKLLRPNHLWGYYLFPDCYNHHYKKPGYNGSCFNVEIKRNDDLSWLWNESTALYPSIYLNTQQSPVAATLYVRNRVREAIRVSKIPDAKSPLPVFAYTRIVFTDQVLKFLSQDELVYTFGETVALGASGIVIWGTLSIMRSMKSCLLLDNYMETILNPYIINVTLAAKMCSQVLCQEQGVCIRKNWNSSDYLHLNPDNFAIQLEKGGKFTVRGKPTLEDLEQFSEKFYCSCYSTLSCKEKADVKDTDAVDVCIADG
modifications: HuPH20 precursor 1-462; Mature HuPH20 36-462
B3: SPAM1-VCIA: C-terminally truncated human PH20, precursor 460 aa (SEQ ID NO:38), mature 425 aa (SEQ ID NO:90) (protein, listed as Homo sapiens)
chain 1: MGVLKFKHIFFRSFVKSSGVSQIVFTFLLIPCCLTLNFRAPPVIPNVPFLWAWNAPSEFCLGKFDEPLDMSLFSFIGSPRINATGQGVTIFYVDRLGYYPYIDSITGVTVNGGIPQKISLQDHLDKAKKDITFYMPVDNLGMAVIDWEEWRPTWARNWKPKDVYKNRSIELVQQQNVQLSLTEATEKAKQEFEKAGKDFLVETIKLGKLLRPNHLWGYYLFPDCYNHHYKKPGYNGSCFNVEIKRNDDLSWLWNESTALYPSIYLNTQQSPVAATLYVRNRVREAIRVSKIPDAKSPLPVFAYTRIVFTDQVLKFLSQDELVYTFGETVALGASGIVIWGTLSIMRSMKSCLLLDNYMETILNPYIINVTLAAKMCSQVLCQEQGVCIRKNWNSSDYLHLNPDNFAIQLEKGGKFTVRGKPTLEDLEQFSEKFYCSCYSTLSCKEKADVKDTDAVDVCIA
chain 2: LNFRAPPVIPNVPFLWAWNAPSEFCLGKFDEPLDMSLFSFIGSPRINATGQGVTIFYVDRLGYYPYIDSITGVTVNGGIPQKISLQDHLDKAKKDITFYMPVDNLGMAVIDWEEWRPTWARNWKPKDVYKNRSIELVQQQNVQLSLTEATEKAKQEFEKAGKDFLVETIKLGKLLRPNHLWGYYLFPDCYNHHYKKPGYNGSCFNVEIKRNDDLSWLWNESTALYPSIYLNTQQSPVAATLYVRNRVREAIRVSKIPDAKSPLPVFAYTRIVFTDQVLKFLSQDELVYTFGETVALGASGIVIWGTLSIMRSMKSCLLLDNYMETILNPYIINVTLAAKMCSQVLCQEQGVCIRKNWNSSDYLHLNPDNFAIQLEKGGKFTVRGKPTLEDLEQFSEKFYCSCYSTLSCKEKADVKDTDAVDVCIA
modifications: HuPH20 precursor 1-460; Mature HuPH20 36-460
B4: SPAM1-VDVC: C-terminally truncated human PH20, precursor 458 aa (SEQ ID NO:39), mature 423 aa (SEQ ID NO:91) (protein, listed as Homo sapiens)
chain 1: MGVLKFKHIFFRSFVKSSGVSQIVFTFLLIPCCLTLNFRAPPVIPNVPFLWAWNAPSEFCLGKFDEPLDMSLFSFIGSPRINATGQGVTIFYVDRLGYYPYIDSITGVTVNGGIPQKISLQDHLDKAKKDITFYMPVDNLGMAVIDWEEWRPTWARNWKPKDVYKNRSIELVQQQNVQLSLTEATEKAKQEFEKAGKDFLVETIKLGKLLRPNHLWGYYLFPDCYNHHYKKPGYNGSCFNVEIKRNDDLSWLWNESTALYPSIYLNTQQSPVAATLYVRNRVREAIRVSKIPDAKSPLPVFAYTRIVFTDQVLKFLSQDELVYTFGETVALGASGIVIWGTLSIMRSMKSCLLLDNYMETILNPYIINVTLAAKMCSQVLCQEQGVCIRKNWNSSDYLHLNPDNFAIQLEKGGKFTVRGKPTLEDLEQFSEKFYCSCYSTLSCKEKADVKDTDAVDVC
chain 2: LNFRAPPVIPNVPFLWAWNAPSEFCLGKFDEPLDMSLFSFIGSPRINATGQGVTIFYVDRLGYYPYIDSITGVTVNGGIPQKISLQDHLDKAKKDITFYMPVDNLGMAVIDWEEWRPTWARNWKPKDVYKNRSIELVQQQNVQLSLTEATEKAKQEFEKAGKDFLVETIKLGKLLRPNHLWGYYLFPDCYNHHYKKPGYNGSCFNVEIKRNDDLSWLWNESTALYPSIYLNTQQSPVAATLYVRNRVREAIRVSKIPDAKSPLPVFAYTRIVFTDQVLKFLSQDELVYTFGETVALGASGIVIWGTLSIMRSMKSCLLLDNYMETILNPYIINVTLAAKMCSQVLCQEQGVCIRKNWNSSDYLHLNPDNFAIQLEKGGKFTVRGKPTLEDLEQFSEKFYCSCYSTLSCKEKADVKDTDAVDVC
modifications: HuPH20 precursor 1-458; Mature HuPH20 36-458

Tests used:
[1] = system: CHO-S cells; experiment: Western blot analysis of PH20 expression in media and cells after transient expression; assay type: cell-based, Chinese Hamster; conditions: media versus cells
Experimental: The mutant PH20-HZ24 plasmids generated in Example 1 were transiently […] into CHO—S cells (derived from Chinese Hamster Ovary CHO K1 cells) using GeneJuice® (Novagen) according to the manufacturer's instructions. In short, the CHO—S cells were grown in CD CHO medium supplemented with L-glutamine. Prior to transfection, the CHO—S cells were plated in 6-well plates, with approximately 5×10^5 cells per well, and grown overnight at 37° C. with 5% CO2. The medium was then removed and the CHO—S cells were washed 2 times with 1 mL serum-free medium. GeneJuice® was mixed with serum-free media followed by the addition of 2 μg mutant-HZ24 DNA. After incubating at room temperature for 5-15 minutes, the GeneJuice®/DNA mixture was added dropwise to an individual well containing the washed CHO—S cells. After 4 hours, the medium was replaced with 1 mL CD-CHO medium supplemented with L-glutamine and the cells were incubated for 72 hours at 37° C. with 5% CO2. Following expression, the media and cells were harvested separately.
The mutant PH20-HZ24 plasmids generated in Example 1 were transiently […] into CHO—S cells using GeneJuice® (Novagen) according to the manufacturer's instructions. […]
In this example, following transient expression, as described in Example 2 above, the media and cells were harvested separately and analyzed for PH20 expression and solublility by Western blot analysis. Solubility of the C-terminus truncation mutants was determined by examining whether the expressed protein was present in the growth media or in the cells. […] Cells expressing these mutants were treated with phosphoinositol-phospholipase C (PI-PLC), which cleaves the GPI-anchor allowing the release of soluble protein into the media, and the presence of PH20 in the resulting media and cells was determined by Western blot analysis.
Non-reduced samples were run on a 4-20% Tris-Glycine gel and transferred to PVDF membrane using iBlot (Invitrogen). For the Western blot, rabbit anti-PH20 IgG (0.5 μg/mL) was used as the primary antibody and HRP-conjugated goat anti-rabbit IgG (0.1 ng/mL, Cat#DC03L, EMD) was used as the secondary antibody. Evidence of expression is determined by a band at approximately 66 kDa, corresponding to recombinant human PH20 hyaluronidase.

[2] = Microtiter hyaluronidase activity assay with biotinylated-hyaluronic acid; assay type: biochemical; conditions: Table 6, 72 hour post transfection supernatant

| Molecule | Expressed in Media [1] | pH 5.5 Activity [2] [Units/ml] | pH 7.4 Activity [2] [Units/ml] |
| --- | --- | --- | --- |
| B1 | YES | 0.045 | 0 |
| B2 | YES | 0.00225 | 0 |
| B3 | YES | 0.0135 | 0 |
| B4 | YES | 0.0585 | 0.0495 |
